T1: NFATc expressed from an expression construct
T1 sequence (O95644 1-943, species assumed, looked up): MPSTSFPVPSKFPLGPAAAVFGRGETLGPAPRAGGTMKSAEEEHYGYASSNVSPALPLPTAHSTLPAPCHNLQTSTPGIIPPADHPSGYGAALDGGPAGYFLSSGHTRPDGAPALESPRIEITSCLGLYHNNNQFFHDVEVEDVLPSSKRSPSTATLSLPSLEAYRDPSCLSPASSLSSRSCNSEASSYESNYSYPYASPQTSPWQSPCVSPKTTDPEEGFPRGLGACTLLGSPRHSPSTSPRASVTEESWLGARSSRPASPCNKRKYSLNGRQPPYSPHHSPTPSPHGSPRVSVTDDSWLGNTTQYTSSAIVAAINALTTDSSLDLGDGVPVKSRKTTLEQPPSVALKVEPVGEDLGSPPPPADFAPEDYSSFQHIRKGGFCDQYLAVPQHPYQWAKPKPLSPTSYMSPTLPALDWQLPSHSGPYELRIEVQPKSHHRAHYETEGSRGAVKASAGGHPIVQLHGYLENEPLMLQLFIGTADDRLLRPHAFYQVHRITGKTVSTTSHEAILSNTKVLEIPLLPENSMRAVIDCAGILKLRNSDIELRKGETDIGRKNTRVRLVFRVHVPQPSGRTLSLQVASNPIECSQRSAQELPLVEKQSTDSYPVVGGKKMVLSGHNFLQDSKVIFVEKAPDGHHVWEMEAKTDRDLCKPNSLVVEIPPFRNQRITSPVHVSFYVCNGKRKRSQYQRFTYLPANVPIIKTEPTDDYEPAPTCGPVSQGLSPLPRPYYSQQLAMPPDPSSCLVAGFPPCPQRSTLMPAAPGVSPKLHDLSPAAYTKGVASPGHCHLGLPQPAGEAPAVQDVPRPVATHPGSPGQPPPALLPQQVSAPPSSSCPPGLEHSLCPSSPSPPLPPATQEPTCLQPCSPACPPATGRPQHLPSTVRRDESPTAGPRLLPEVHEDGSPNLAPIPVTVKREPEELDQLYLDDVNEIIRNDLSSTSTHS

T2: NFAT3 expressed from an expression construct
T2 sequence (Q14934 1-902, species assumed, looked up): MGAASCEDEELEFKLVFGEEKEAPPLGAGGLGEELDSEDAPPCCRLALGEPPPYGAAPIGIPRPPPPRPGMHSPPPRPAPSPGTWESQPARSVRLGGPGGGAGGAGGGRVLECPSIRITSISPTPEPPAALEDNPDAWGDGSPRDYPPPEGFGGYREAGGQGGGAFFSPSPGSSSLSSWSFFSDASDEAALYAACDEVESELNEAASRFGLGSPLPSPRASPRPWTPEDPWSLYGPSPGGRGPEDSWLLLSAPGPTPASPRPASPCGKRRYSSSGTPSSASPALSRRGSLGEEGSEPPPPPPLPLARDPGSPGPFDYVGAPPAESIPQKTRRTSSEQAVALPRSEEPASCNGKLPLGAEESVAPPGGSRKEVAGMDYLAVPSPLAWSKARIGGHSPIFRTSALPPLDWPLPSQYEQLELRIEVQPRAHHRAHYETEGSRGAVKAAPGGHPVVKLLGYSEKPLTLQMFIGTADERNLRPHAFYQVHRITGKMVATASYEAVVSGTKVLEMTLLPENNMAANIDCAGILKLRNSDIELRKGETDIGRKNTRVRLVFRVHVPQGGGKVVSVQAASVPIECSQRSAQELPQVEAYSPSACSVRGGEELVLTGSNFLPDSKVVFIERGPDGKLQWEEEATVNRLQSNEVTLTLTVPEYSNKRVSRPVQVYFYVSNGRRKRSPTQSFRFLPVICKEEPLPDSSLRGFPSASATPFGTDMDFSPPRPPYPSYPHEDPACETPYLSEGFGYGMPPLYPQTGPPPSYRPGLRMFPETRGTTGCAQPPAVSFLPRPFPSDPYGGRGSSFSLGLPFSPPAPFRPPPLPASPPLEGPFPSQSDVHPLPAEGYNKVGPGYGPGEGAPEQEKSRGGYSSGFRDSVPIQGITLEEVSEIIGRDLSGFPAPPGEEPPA

T3: NFAT4 expressed from an expression construct
T3 sequence (Q12968 2-1075, species assumed, looked up): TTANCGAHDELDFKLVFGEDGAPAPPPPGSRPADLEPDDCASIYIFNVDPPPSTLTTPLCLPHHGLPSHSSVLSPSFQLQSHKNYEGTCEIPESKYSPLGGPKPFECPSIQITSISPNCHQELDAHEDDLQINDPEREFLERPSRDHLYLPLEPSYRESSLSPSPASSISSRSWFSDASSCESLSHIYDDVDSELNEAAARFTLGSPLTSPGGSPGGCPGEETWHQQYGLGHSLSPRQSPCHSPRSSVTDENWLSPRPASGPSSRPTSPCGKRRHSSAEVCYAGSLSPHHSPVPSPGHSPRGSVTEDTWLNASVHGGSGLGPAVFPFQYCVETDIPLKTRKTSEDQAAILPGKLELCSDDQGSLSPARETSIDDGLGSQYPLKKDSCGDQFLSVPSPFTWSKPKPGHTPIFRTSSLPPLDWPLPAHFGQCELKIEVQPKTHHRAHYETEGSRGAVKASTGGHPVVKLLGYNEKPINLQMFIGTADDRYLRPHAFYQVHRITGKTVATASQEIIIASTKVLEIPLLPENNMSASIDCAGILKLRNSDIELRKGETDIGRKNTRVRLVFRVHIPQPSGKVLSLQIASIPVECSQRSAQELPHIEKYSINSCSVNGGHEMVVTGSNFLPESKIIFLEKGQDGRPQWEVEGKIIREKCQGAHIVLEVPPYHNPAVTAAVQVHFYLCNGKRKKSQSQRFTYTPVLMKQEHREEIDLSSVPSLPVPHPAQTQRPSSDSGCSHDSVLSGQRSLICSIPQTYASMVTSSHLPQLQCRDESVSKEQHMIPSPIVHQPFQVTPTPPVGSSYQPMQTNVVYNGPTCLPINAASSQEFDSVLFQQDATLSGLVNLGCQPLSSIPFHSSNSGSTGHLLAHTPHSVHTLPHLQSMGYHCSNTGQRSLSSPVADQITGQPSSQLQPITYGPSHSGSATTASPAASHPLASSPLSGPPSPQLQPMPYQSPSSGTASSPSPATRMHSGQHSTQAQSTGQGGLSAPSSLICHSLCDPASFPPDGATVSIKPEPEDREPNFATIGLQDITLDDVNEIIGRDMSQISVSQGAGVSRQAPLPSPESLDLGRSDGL

T4: CARM1 of Jurkat cell lysates (human, UniProt Q86X55 2-608, limits assumed)
T4 sequence (looked up): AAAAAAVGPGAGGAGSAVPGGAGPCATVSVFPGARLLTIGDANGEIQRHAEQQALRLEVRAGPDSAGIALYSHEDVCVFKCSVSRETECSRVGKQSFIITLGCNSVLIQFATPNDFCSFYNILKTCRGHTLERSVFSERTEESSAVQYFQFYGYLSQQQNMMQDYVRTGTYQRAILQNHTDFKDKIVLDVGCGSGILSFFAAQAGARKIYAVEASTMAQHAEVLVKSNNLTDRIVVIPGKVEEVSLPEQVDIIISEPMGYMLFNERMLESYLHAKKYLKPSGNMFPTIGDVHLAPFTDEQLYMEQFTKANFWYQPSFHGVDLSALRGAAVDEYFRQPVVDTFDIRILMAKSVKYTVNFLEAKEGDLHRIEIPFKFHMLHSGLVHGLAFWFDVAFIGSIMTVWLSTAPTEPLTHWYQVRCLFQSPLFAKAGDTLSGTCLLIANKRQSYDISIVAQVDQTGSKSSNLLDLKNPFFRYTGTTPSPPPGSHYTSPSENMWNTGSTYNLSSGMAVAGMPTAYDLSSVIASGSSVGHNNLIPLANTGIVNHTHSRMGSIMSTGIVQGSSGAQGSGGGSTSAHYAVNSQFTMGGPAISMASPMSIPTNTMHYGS


Experiments:
[1] = molecular target: T1, NFATc expressed from an expression …; test: cell-based or functional assay
[2] = molecular target: T2, NFAT3 expressed from an expression …; test: cell-based or functional assay
[3] = molecular target: T3, NFAT4 expressed from an expression …; test: cell-based or functional assay
[4] = molecular target: T4, CARM1 of Jurkat cell lysates; test: GST pull-down of Jurkat cell lysates, immunoblot with a polyclonal CARM1 antibody
Description: FIGS. 16A-16C depict the interaction of NIP45 and PRMT. (A) Jurkat cell lysates were used in pulldown assays with 25 μg of recombinant GST, GST-NIP45, and GST-ΔN-NIP45. The presence of PRMT1 or CARM1 in pulldown samples was determined by immunoblotting with a monoclonal PRMT1 antibody and a polyclonal CARM1 antibody. PVDF membranes were reprobed with anti-GST antibodies to determine equal amount of recombinant proteins in pulldown samples. (B) Flag-NIP45or Flag-ΔN-NIP45 or vector control and HA-PRMT1 expression constructs were transfected in 293 cells. Lysates were immunoprecipitated with anti-Flag agarose and interaction with PRMT1 was determined by probing immunoblots with a monoclonal anti-HA antibody. Equal loading was assessed by probing with an anti-Flag antibody. (C) Lysates from unstimulated or 60 min PMA/ionomycin stimulated day 7 Th1 or Th2 differentiation cultures were immunoprecipitated with a monoclonal PRMT1 antibody or appropriate isotype control. Interaction with endogenous NIP45 was determined by immunoblotting PRMT1 antibody to determine equal loading.
Because PRMT1 methylates NIP45, their interaction was examined more closely. To determine specificity of interaction GST-NIP45 and GST-ΔN-NIP45 fusion proteins were used in pulldown assays of Jurkat cell lysates. […]

Row | Binder | transactivation of a 3X NFAT-CAT reporter in HepG2 cells [1] [fold] | transactivation of a 3X NFAT-CAT reporter in HepG2 cells [2] [fold] | transactivation of a 3X NFAT-CAT reporter in HepG2 cells [3] [fold] | binding result [4]
1 | NIP45 expressed from a NIP45 expression plasmid (other) MAEPLRGRGPRSRGGRGARRARGARGRCPRARQSPARLIPDTVLVDLVSDSDEEVLEVADPVEVPVARLPAPAKPEQDSDSDSEGAAEGPAGAPRTLVRRRRRRLLDPGEAPVVPVYSGKVQSSLNLIPDNSSLLKLCPSEPEDEADLTNSGSSPSEDDALPSGSPWRKKLRKKCEKEEKKMEEFPDQDISPLPQPSSRNKSRKHTEALQKLREVNKRLQDLRSCLSPKQHQSPALQSTDDEVVLVEGPVLPQSSRLFTLKIRCRADLVRLPVRMSEPLQNVVDHMANHLGVSPNRILLLFGESELSPTATPSTLKLGVADIIDCVVLASSSEATETSQELRLRVQGKEKHQMLEISLSPDSPLKVLMSHYEEAMGLSGHKLSFFFDGTKLSGKELPADLGLESGDLIEVWG | 4 | 3 | 2 | –
2 | GST-NIP45 fusion protein (bacterially expressed, full length NIP45) (other, also called recombinant GST-NIP45; recombinant full-length NIP45; not shown: glutathione-S-transferase (GST) fusion partner) MAEPLRGRGPRSRGGRGARRARGARGRCPRARQSPARLIPDTVLVDLVSDSDEEVLEVADPVEVPVARLPAPAKPEQDSDSDSEGAAEGPAGAPRTLVRRRRRRLLDPGEAPVVPVYSGKVQSSLNLIPDNSSLLKLCPSEPEDEADLTNSGSSPSEDDALPSGSPWRKKLRKKCEKEEKKMEEFPDQDISPLPQPSSRNKSRKHTEALQKLREVNKRLQDLRSCLSPKQHQSPALQSTDDEVVLVEGPVLPQSSRLFTLKIRCRADLVRLPVRMSEPLQNVVDHMANHLGVSPNRILLLFGESELSPTATPSTLKLGVADIIDCVVLASSSEATETSQELRLRVQGKEKHQMLEISLSPDSPLKVLMSHYEEAMGLSGHKLSFFFDGTKLSGKELPADLGLESGDLIEVWG | – | – | – | no binding (tested: 25 µg of recombinant protein)

Source: patent US20090048117A1 (Harvard, published 2009)
